Measurements reported in the RNAGym collection of RNA variant scans (doi:10.1021/acssynbio.7b00057).

B1: Pistol ribozyme (parent)
chain: GGGUCGUUGUUCCAUAAUCGCGUGGAUAUGGCACGCAAGUUUCUACCGGGCACCGUAAAUGUCCGACUGGAGCCGUUCGGGCGGCUAUAAACAGACCUCAGGCCCGAAGCGUGGCGGCACCUGCCGCCGGUGGUAAAAAAGAUCGGAAGAGCACACGUCU

Variants of: B1
Assay: aptazyme ON/OFF ratio, guanine; higher = stronger switching; co-transcriptional cleavage with and without guanine
In the case of GGGUCGCUGUAGUAUAAUCGCGUGGAUAUGGCACGCAAGUUUCUACCGGGCACCGUAAAUGUCCGACUGGAGCCGUUCGGGCGGCUAUAAACAGACCUCAGGCCCGAAGCGUGGCGGCACCUGCCGCCGGUGGUAAAAAAGAUCGGAAGAGCACACGUCU, the “aptazyme ON/OFF ratio” value is reported as 1.07.
In the case of GGGUCGCUGUAGGAUAAUCGCGUGGAUAUGGCACGCAAGUUUCUACCGGGCACCGUAAAUGUCCGACUGGAGCCGUUCGGGCGGCUAUAAACAGACCUCAGGCCCGAAGCGUGGCGGCACCUGCCGCCGGUGGUAAAAAAGAUCGGAAGAGCACACGUCU, the “aptazyme ON/OFF ratio” value is reported as 1.16.
For GGGUCGCUGUAGAAUAAUCGCGUGGAUAUGGCACGCAAGUUUCUACCGGGCACCGUAAAUGUCCGACUGGAGCCGUUCGGGCGGCUAUAAACAGACCUCAGGCCCGAAGCGUGGCGGCACCUGCCGCCGGUGGUAAAAAAGAUCGGAAGAGCACACGUCU, the “aptazyme ON/OFF ratio” value was 1.11.
For GGGUCGCUGGGUCAUAAUCGCGUGGAUAUGGCACGCAAGUUUCUACCGGGCACCGUAAAUGUCCGACUGGAGCCGUUCGGGCGGCUAUAAACAGACCUCAGGCCCGAAGCGUGGCGGCACCUGCCGCCGGUGGUAAAAAAGAUCGGAAGAGCACACGUCU, the “aptazyme ON/OFF ratio” value was 1.21.
For GGGUCGCUGGGGUAUAAUCGCGUGGAUAUGGCACGCAAGUUUCUACCGGGCACCGUAAAUGUCCGACUGGAGCCGUUCGGGCGGCUAUAAACAGACCUCAGGCCCGAAGCGUGGCGGCACCUGCCGCCGGUGGUAAAAAAGAUCGGAAGAGCACACGUCU, the “aptazyme ON/OFF ratio” value was 1.16.
With GGGUCGCUGGGGGAUAAUCGCGUGGAUAUGGCACGCAAGUUUCUACCGGGCACCGUAAAUGUCCGACUGGAGCCGUUCGGGCGGCUAUAAACAGACCUCAGGCCCGAAGCGUGGCGGCACCUGCCGCCGGUGGUAAAAAAGAUCGGAAGAGCACACGUCU the “aptazyme ON/OFF ratio” value was 0.991.
With GGGUCGCUGUAAGAUAAUCGCGUGGAUAUGGCACGCAAGUUUCUACCGGGCACCGUAAAUGUCCGACUGGAGCCGUUCGGGCGGCUAUAAACAGACCUCAGGCCCGAAGCGUGGCGGCACCUGCCGCCGGUGGUAAAAAAGAUCGGAAGAGCACACGUCU the “aptazyme ON/OFF ratio” value was 1.25.
For GGGUCGCUGUAAAAUAAUCGCGUGGAUAUGGCACGCAAGUUUCUACCGGGCACCGUAAAUGUCCGACUGGAGCCGUUCGGGCGGCUAUAAACAGACCUCAGGCCCGAAGCGUGGCGGCACCUGCCGCCGGUGGUAAAAAAGAUCGGAAGAGCACACGUCU, the “aptazyme ON/OFF ratio” value was 1.23.
With GGGUCGCUGUAAUAUAAUCGCGUGGAUAUGGCACGCAAGUUUCUACCGGGCACCGUAAAUGUCCGACUGGAGCCGUUCGGGCGGCUAUAAACAGACCUCAGGCCCGAAGCGUGGCGGCACCUGCCGCCGGUGGUAAAAAAGAUCGGAAGAGCACACGUCU the “aptazyme ON/OFF ratio” value was 1.28.
For GGGUCGCUGUAGCAUAAUCGCGUGGAUAUGGCACGCAAGUUUCUACCGGGCACCGUAAAUGUCCGACUGGAGCCGUUCGGGCGGCUAUAAACAGACCUCAGGCCCGAAGCGUGGCGGCACCUGCCGCCGGUGGUAAAAAAGAUCGGAAGAGCACACGUCU, the “aptazyme ON/OFF ratio” value was 1.21.
In the case of GGGUCGCUGUAACAUAAUCGCGUGGAUAUGGCACGCAAGUUUCUACCGGGCACCGUAAAUGUCCGACUGGAGCCGUUCGGGCGGCUAUAAACAGACCUCAGGCCCGAAGCGUGGCGGCACCUGCCGCCGGUGGUAAAAAAGAUCGGAAGAGCACACGUCU, the “aptazyme ON/OFF ratio” value is reported as 1.51.
With GGGUCGCUGGGCGAUAAUCGCGUGGAUAUGGCACGCAAGUUUCUACCGGGCACCGUAAAUGUCCGACUGGAGCCGUUCGGGCGGCUAUAAACAGACCUCAGGCCCGAAGCGUGGCGGCACCUGCCGCCGGUGGUAAAAAAGAUCGGAAGAGCACACGUCU the “aptazyme ON/OFF ratio” value was 1.13.
In the case of GGGUCGCUGGGCAAUAAUCGCGUGGAUAUGGCACGCAAGUUUCUACCGGGCACCGUAAAUGUCCGACUGGAGCCGUUCGGGCGGCUAUAAACAGACCUCAGGCCCGAAGCGUGGCGGCACCUGCCGCCGGUGGUAAAAAAGAUCGGAAGAGCACACGUCU, the “aptazyme ON/OFF ratio” value is reported as 1.15.
In the case of GGGUCGCUGGGCUAUAAUCGCGUGGAUAUGGCACGCAAGUUUCUACCGGGCACCGUAAAUGUCCGACUGGAGCCGUUCGGGCGGCUAUAAACAGACCUCAGGCCCGAAGCGUGGCGGCACCUGCCGCCGGUGGUAAAAAAGAUCGGAAGAGCACACGUCU, the “aptazyme ON/OFF ratio” value is reported as 1.22.
In the case of GGGUCGCUGGGUAAUAAUCGCGUGGAUAUGGCACGCAAGUUUCUACCGGGCACCGUAAAUGUCCGACUGGAGCCGUUCGGGCGGCUAUAAACAGACCUCAGGCCCGAAGCGUGGCGGCACCUGCCGCCGGUGGUAAAAAAGAUCGGAAGAGCACACGUCU, the “aptazyme ON/OFF ratio” value is reported as 1.13.
With GGGUCGCUGGGUGAUAAUCGCGUGGAUAUGGCACGCAAGUUUCUACCGGGCACCGUAAAUGUCCGACUGGAGCCGUUCGGGCGGCUAUAAACAGACCUCAGGCCCGAAGCGUGGCGGCACCUGCCGCCGGUGGUAAAAAAGAUCGGAAGAGCACACGUCU the “aptazyme ON/OFF ratio” value was 1.1.
With GGGUCGCUGGGUUAUAAUCGCGUGGAUAUGGCACGCAAGUUUCUACCGGGCACCGUAAAUGUCCGACUGGAGCCGUUCGGGCGGCUAUAAACAGACCUCAGGCCCGAAGCGUGGCGGCACCUGCCGCCGGUGGUAAAAAAGAUCGGAAGAGCACACGUCU the “aptazyme ON/OFF ratio” value was 1.3.
With GGGUCGCUGUACCAUAAUCGCGUGGAUAUGGCACGCAAGUUUCUACCGGGCACCGUAAAUGUCCGACUGGAGCCGUUCGGGCGGCUAUAAACAGACCUCAGGCCCGAAGCGUGGCGGCACCUGCCGCCGGUGGUAAAAAAGAUCGGAAGAGCACACGUCU the “aptazyme ON/OFF ratio” value was 1.38.
